We go through five substances from patent US20070196883A1, “ENZYME” (UNIVERSITY OF DUNDEE, priority 1999, published 2007).

Read-outs that look alike come from different tables or passages of the source. Ends that are not written are not given here.

The target in one experiment is T1, endogenous PDK1 (Homo sapiens, UniProt O15530).
T1 construct: endogenous in cells; host or cells: 293 cells
T1 sequence (O15530 1-556): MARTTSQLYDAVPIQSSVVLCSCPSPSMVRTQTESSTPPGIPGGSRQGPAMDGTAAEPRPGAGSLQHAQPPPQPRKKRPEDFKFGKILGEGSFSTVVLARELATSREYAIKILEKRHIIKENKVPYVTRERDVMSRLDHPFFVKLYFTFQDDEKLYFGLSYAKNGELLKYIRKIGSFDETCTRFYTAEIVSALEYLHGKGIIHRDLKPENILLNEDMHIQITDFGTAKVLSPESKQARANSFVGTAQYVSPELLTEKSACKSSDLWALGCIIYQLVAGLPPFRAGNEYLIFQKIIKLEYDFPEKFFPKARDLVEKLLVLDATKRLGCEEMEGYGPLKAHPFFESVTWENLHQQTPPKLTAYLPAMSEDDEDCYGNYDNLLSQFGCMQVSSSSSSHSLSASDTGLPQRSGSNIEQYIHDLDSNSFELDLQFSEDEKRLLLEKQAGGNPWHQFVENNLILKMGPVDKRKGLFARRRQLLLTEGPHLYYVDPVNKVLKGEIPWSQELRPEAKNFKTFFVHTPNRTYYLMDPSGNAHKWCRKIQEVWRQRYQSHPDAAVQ
Put plainly: Association of endogenous PDK1 with GST-PIF proteins purified from 293 cells. In kind it is binding. The settings on record: expressed in 293 cells, glutathione-Sepharose purified; PDK1 immunoblot and activity. The procedure: FIG. 3. Mapping the residues on PIF that are required for the interaction with PDK1. (A) 293 cells were transiently transfected with DNA constructs expressing either the wild type GST-PIF or the indicated point mutations of this protein. The cells were lysed and the GST fusion proteins purified by affinity chromatography on glutathione-Sepharose beads. Each GST-fusion protein was incubated for 30 min at 30° C. with GST-S473D-PKBα and MgATP in the presence or absence of phospholipid vesicles containing 100 μM PtdCho, 100 μM PtdSer, 10 μM sn-1-stearoyl-2-arachidonoyl-D-PtdIns(3,4,5)P3, and the increase in specific activity of GST-S473D-PKBα was determined relative to a control incubation in which the GST fusion protein was omitted. The basal activity of GST-S473D-PKBα was 3.5 U/mg. 2 μg of each protein was electrophoresed on a 10% SDS/polyacrylamide gel and either immunoblotted using a PDK1 antibody raised against whole protein to detect any endogenous PDK1, or stained with Coomassie blue to establish the level of expression of the GST-PIF protein. Similar results were obtained in 5 separate experiments using 2 or more preparations of the wild type and mutant GST-PIF proteins. (B) Yeast harbouring the pAS2-1 wild type PDK1 vector (“PDK1-Vector”) or the empty pAS2-1 vector (“Vector”) were transformed with pGAD10 plasmid coding for the expression of the wild type PIF or the indicated mutants of PIF. The resulting yeast strain was grown on SD-Leu-Trp-Ura-His+3-AT medium which only permits growth of yeast constructs in which GST-PIF and PDK1 are capable of interacting.
Expression of GST-fusion proteins in 293 cells. Up to twenty 10 cm diameter dishes of 293 cells were cultured and each dish transfected with 20 μg of pEBG2T DNA encoding the desired GST-fusion protein using a modified calcium phosphate method. In experiments described in FIG. 1 in which Myc-PDK1 constructs (pCMV5 vector) were coexpressed with GST-PIF (pEBG2T vector) or GST alone (empty pEBG2T vector) 10 μg of each construct was used. […]
(A western blot detects proteins with antibodies after separation by electrophoresis.)

Experiment [1] has as its system PDK1. The experiment can be described thus: Activation of GST-ΔPH-PKBα by PDK1 with or without PIF and phosphoinositide. Format: biochemical. To be noted: absence of PtdIns(3,4,5)P3. The protocol:
FIG. 8. Maximal activation of PKB by PDK1/PIF requires PtdIns(3,4,5)P3 to interact with both PKB and PDK1. […] The basal activity of GST-ΔPH-PKBα was 3.0 U/mg.
Measurement of PKBα activation after incubation with GST-PIF. This assay was carried out in 2 stages, as described previously; briefly, in the first, GST-PKBα was incubated with GST-PIF (or other indicated PDK1 proteins in the presence or absence of peptides) in the presence of MgATP and phospholipid vesicles.
In Stage 1, an 15 μl reaction mixture was set up containing 66.5 mM Tris/HCl pH 7.5, 0.13 mM EGTA, 0.13% (by vol) 2-mercaptoethanol, 3.3 μM PKI, 1.3 μM microcystin-LR, 13.3 mM Mg(Ac)2, 133 μM unlabelled ATP, 0.4 μM GST-PKBA, 133 μM PtdSer, 133 μM PtdCho in the presence or absence of 13.3 μM PtdIns(3,4,5)P3. The assay was initiated by the addition of 5 μl of 0.2 mg/ml GST-PIF (or other indicated proteins or peptides), after incubation for 30 min at 30° C., stage 2 of the assay was initiated by the addition of 30 μl of a mixture made up of Buffer B containing 2.5 μM PKI, 1 μM microcystin-LR, 10 mM Mg(Ac)2, 100 μM [γ^32P]ATP (200-400 cpm/pmol), 100 μM of the peptide RPRTAAF (SEQ ID NO:13) and 1.25% (by vol) Triton X-100. After 10 min at 30° C., the reactions were terminated by spotting the reaction mixture on to P81 phosphocellulose paper. The papers were washed in 75 mM phosphoric acid and analysed as described previously. A control reaction in which GST-PKBα was omitted was taken as the blank and was always less than 5% of the activity measured in the presence of GST-PKBα. The basal GST-PKBα activity is the activity measured in the absence of PDK1. 1 Unit of GST-PKBα activity was that amount of enzyme required to catalyse the phosphorylation of 1 nmol of the peptide RPRTAAF (SEQ ID NO:13) in 1 min. The assays were linear with time up to a final concentration of 3 U/ml of PDK1 activity in the assay.

The target in experiment [2] is T2, PDK1 (Homo sapiens, UniProt O15530).
T2 construct: expressed in transfected cells; host or cells: yeast strain Y166
T2 sequence (O15530 428-556): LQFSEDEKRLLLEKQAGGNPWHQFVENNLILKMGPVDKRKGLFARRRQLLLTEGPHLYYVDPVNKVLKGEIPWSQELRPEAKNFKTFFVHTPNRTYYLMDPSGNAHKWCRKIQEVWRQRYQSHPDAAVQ
The experiment can be described thus: Yeast two hybrid interaction of PIF with PDK1. In kind it is binding. From the text: (§1) FIG. 1. Two hybrid interaction of PIF with the kinase domain of PDK1. Yeast were transformed with a pGAD10 plasmid (LEU2) harbouring the C-terminal 77 amino acids of PRK2 (termed PIF) in the presence of either a pAS2-1 plasmid (TRP1) coding for the expression of the wild type PDK1, the kinase domain of PDK1 (residues 1 to 404) or the PH domain of PDK1 (residues 428 to 556) or the empty pAS2-1 vector as a control (denoted by—(A). The position on the plate of each yeast strain is indicated in (A). In (B) the yeast are grown on SD-Leu and Trp deficient media in which all the strains of yeast are capable of growing independently of whether PIF is interacting with PDK1. An interaction between PIF and PDK1 leads to the expression of reporter genes coding for URA3 and HIS1 that will enable growth on SD-Leu-Trp-Ura-His+3-AT medium (C) as well as the induction of β-galactosidase gene expression (D). Alignment of the amino acid sequence of the C-terminal 77 amino acids of PRK2 with the equivalent region of AGC subfamily kinases indicated (E). Identical residues are denoted by white-on-black letters, and similar residues by grey boxes. PRK2 (SEQ ID NO:14; PRK1 (SEQ ID NO:15); PKBα (SEQ ID NO:16); P70S6k (SEQ ID NO:17); SGK (SEQ ID NO:18); PKCζ (SEQ ID NO:19); PKCα (SEQ ID NO:20); PKCβ (SEQ ID NO:21).
(§2) Myc-tagged human PDK1, kinase domain of PDK1 (residues 1-404) and the PH domain of PDK1 (428 to 556) were subcloned into the EcoRI/SalI of the yeast pAS2-1 vector. A yeast two hybrid screen was carried out using a human skeletal muscle library subcloned into the pGAD10 vector (Clontech) transformed into the yeast strain Y166. 4×10^6 yeast cells were transformed with pGAD10 library constructs and PDK1 constructs in the pAS2-1 vector. […] In this system interacting clones from the library are able to grow in medium lacking histidine and uracil and express β-galactosidase which was detected using the Clontech protocol. pGAD10 plasmids from interacting clones were isolated transferred to E. coli, and sequenced. […]

The target in experiment [3] is T3, PDK1 (Homo sapiens, UniProt O15530).
T3 construct: expressed in transfected cells; host or cells: yeast strain Y166
T3 sequence (O15530 1-404): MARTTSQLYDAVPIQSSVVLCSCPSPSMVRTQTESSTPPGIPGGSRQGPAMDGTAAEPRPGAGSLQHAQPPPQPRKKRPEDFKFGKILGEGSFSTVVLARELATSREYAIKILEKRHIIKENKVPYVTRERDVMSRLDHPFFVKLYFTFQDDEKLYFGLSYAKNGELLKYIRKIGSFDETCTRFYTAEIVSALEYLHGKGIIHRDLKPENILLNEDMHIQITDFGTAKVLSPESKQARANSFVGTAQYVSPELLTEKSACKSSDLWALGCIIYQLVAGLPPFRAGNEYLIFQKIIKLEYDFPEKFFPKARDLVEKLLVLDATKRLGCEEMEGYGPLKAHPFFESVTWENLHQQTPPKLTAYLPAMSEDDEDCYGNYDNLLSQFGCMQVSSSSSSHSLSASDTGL
Put plainly: Yeast two hybrid interaction of PIF with PDK1. Format: binding.
Text: as §1, §2
The source holds these as a separate data set.

Experiment [4] deals with T4, PDK1 (Homo sapiens, UniProt O15530).
T4 construct: expressed in transfected cells; host or cells: yeast strain Y166
T4 sequence (O15530 1-556): T1 sequence (O15530 1-556)
The experiment can be described thus: Yeast two hybrid interaction of PIF with PDK1. Format: binding.
Text: as §1, §2
This is another data set of the same source.

A further experiment has as its target T5, His-PDK1 (Homo sapiens, UniProt O15530).
T5 construct: made in house; host or cells: Sf21 insect cells (baculovirus, pFASTBAC HTb)
T5 sequence (O15530 1-556): T1 sequence (O15530 1-556)
The experiment can be described thus: Surface Plasmon Resonance (BiaCore) binding of His-PDK1 to GST-PIF / Region B peptide. The protocol: FIG. 12. Quantitative analysis of the binding of PDK1 to PIF. Surface Plasmon Resonance measurements were carried out on a BiaCore instrument as described in the methods section. […] The responses at steady state binding were recorded. […] All data are single determinations from a representative experiment that was repeated at least 3 times with similar results.
BiaCore measurements. GST-PIF was coupled through amine groups to the Sensor Chip CM5 according to the manufacturer's instructions. […] The 24 residue peptide overlapping Region B was biotinylated through its C-terminal Cys and bound to Avidin coated Sensor Chip SA. […] The decrease in steady state binding was used to determine the Kd of interaction between PDK1 and the peptide, according to the […] relationship. The measure of response in our experiments is termed RU; 1000 RU=1 ng/mm^2 of protein bound to the surface.
(In general: Surface plasmon resonance follows binding to a sensor surface in real time, without labels.)

Consider “Y979: GST-PIF mutant, Y979 mutated to Ala [Lipid Y979]”, for which the “association of endogenous PDK1 with GST-PIF protein” value (shortened to “association of endogenous PDK1”) with endogenous PDK1 is “completely abolished”.

Consider “F977: GST-PIF mutant, F977 mutated to Ala [Lipid F977]”, for which the “association of endogenous PDK1” value with endogenous PDK1 was “completely abolished”. “F974: GST-PIF mutant, F974 mutated to Ala [Lipid F974]”: in the experiment with endogenous PDK1, the “association of endogenous PDK1” value is “completely abolished”. With PIF: C-terminal 77 amino acids of PRK2, the “inhibition of the catalytic activity of PDK1” value with PDK1 [1] was about 2 fold. In addition, the “two hybrid interaction with the PH domain of PDK1” value in the experiment with PDK1 [2] was “not”. Further, the “two hybrid interaction with the isolated kinase domain of PDK1” value with PDK1 [3] is “positive interaction”. Moreover, the “two hybrid interaction with full length PDK1” value with PDK1 [4] was “positive interaction”. For “REPRILSEEEQEMFRDFDYIADWC [Region B peptide]”, the dissociation constant Kd (as a rule, the concentration at which binding is half-saturated) came to 1500 nM on His-PDK1 (His-PDK1 0.5 μM mixed with free peptide, injected over immobilised peptide, read-out: Kd from competition by addition of free peptide); 800 nM at His-PDK1 (immobilised and biotinylated 24 residue peptide, His-PDK1 injected, read-out: Kd).
